Data reported in publication PMC8802628, “Selective activation of PFKL suppresses the phagocytic oxidative burst” (Cell, 2021).
Several values for one entry are separate records, joined by “and”; a condition that tells them apart may be missing. Equal entries are not always repeated.

Tests used:
[1] = substrate: O=C(CO)[C@@H](O)[C@H](O)[C@H](O)COP(=O)(O)O; assay: Recombinant PFKL activity assay (relief of ATP inhibition); type: biochemical, human; settings: other: PFKL wild type, pH 7.5, 225 μM ATP, 25.0 °C
From the text: (§1) Recombinant N-terminal His-tagged human PFKL (NP_002617), PFKM (NP_000280), and PFKP (NM_002627.4) were generated as described ([Webb et al., 2015], [2017]). Point mutants of PFK1 were generated using the QuikChange Lightning kit (Aligent).
(§2) His-tagged PFK1 was expressed and purified as described with slight modifications ([Webb et al., 2015], [2017]). Briefly, baculovirus was generated using the Bac-to-Bac Expression system (Invitrogen). PFK1 was expressed in 2-5 × 10^6 sf9 cells at a multiplicity of infection of two for 48 h. […] Protein was quantified using a Bradford Protein Assay kit (ThermoFisher Scientific), and aliquotes frozen in liquid nitrogen for storage at −80°C.
(§3) PFK1 activity was determined using the rate of FBP production via an auxiliary enzyme assay adapted to a 96-well format ([Brüser et al., 2012]; [Webb et al., 2015]). […] For assays containing FBP, the rate of ADP production was determined using the auxiliary enzymes pyruvate kinase (PK) and lactate dehydrogenase (LDH) (MilliporeSigma) in a buffer containing 250 μM phosphoenolpyruvic acid, […] NADH, 50 mM HEPES pH 7.5, 100 mM KCl, 1 mM DTT, and effector concentrations as described in the text. […] Absorbance at 340 nm was measured using a Varioskan LUX Multimode microplate reader (ThermoFisher). […]

[2] = target: the molecule itself; assay: cryo-EM structure; 9 uM purified PFKL with 1 mM ATP, 2 mM F6P and 50 uM NA-11 in 20 mM HEPES pH 7.5, 1 mM DTT, 500 uM ammonium sulfate, 5% glycerol, 100 uM EDTA; refinement focused on a single, masked tetramer
[3] = substrate: O=C(CO)[C@@H](O)[C@H](O)[C@H](O)COP(=O)(O)O; assay: Recombinant PFKL−hook activity assay; type: biochemical, human; settings: other: PFKL−hook, pH 7.5, 225 μM ATP, 25.0 °C
From the text: as §1, §2, §3

[4] = substrate: O=C(CO)[C@@H](O)[C@H](O)[C@H](O)COP(=O)(O)O; assay: Recombinant PFKL−pocket activity assay; type: biochemical, human; settings: other: PFKL−pocket, pH 7.5, 225 μM ATP, 25.0 °C
From the text: as §1, §2, §3

B1: phosphofructokinase-1 liver type (PFKL), human, recombinant N-terminal His-tagged (enzyme)
chain: MAAVDLEKLRASGAGKAIGVLTSGGDAQGMNAAVRAVTRMGIYVGAKVFLIYEGYEGLVEGGENIKQANWLSVSNIIQLGGTIIGSARCKAFTTREGRRAAAYNLVQHGITNLCVIGGDGSLTGANIFRSEWGSLLEELVAEGKISETTARTYSHLNIAGLVGSIDNDFCGTDMTIGTDSALHRIMEVIDAITTTAQSHQRTFVLEVMGRHCGYLALVSALASGADWLFIPEAPPEDGWENFMCERLGETRSRGSRLNIIIIAEGAIDRNGKPISSSYVKDLVVQRLGFDTRVTVLGHVQRGGTPSAFDRILSSKMGMEAVMALLEATPDTPACVVTLSGNQSVRLPLMECVQMTKEVQKAMDDKRFDEATQLRGGSFENNWNIYKLLAHQKPPKEKSNFSLAILNVGAPAAGMNAAVRSAVRTGISHGHTVYVVHDGFEGLAKGQVQEVGWHDVAGWLGRGGSMLGTKRTLPKGQLESIVENIRIYGIHALLVVGGFEAYEGVLQLVEARGRYEELCIVMCVIPATISNNVPGTDFSLGSDTAVNAAMESCDRIKQSASGTKRRVFIVETMGGYCGYLATVTGIAVGADAAYVFEDPFNIHDLKVNVEHMTEKMKTDIQRGLVLRNEKCHDYYTTEFLYNLYSSEGKGVFDCRTNVLGHLQQGGAPTPFDRNYGTKLGVKAMLWLSEKLREVYRKGRVFANAPDSACVIGLKKKAVAFSPVTELKKDTDFEHRMPREQWWLSLRLMLKMLAQYRISMAAYVSGELEHVTRRTLSMDKGF
notes: human phosphofructokinase-1 liver type (PFKL), NP_002617; Homotetramer; In cryo-EM it mostly formed stacked pairs of tetramers; The sample held ATP, F6P and the small molecule NA-11; also called PFK1 liver isoform; wild-type PFKL; source: Sf9 cells (baculovirus, Bac-to-Bac), purified (HisPur cobalt resin, desalting column)
Km [1]: 1970 ± 240 µM | stoichiometry N [2]: 4 and 8

B2: PFKL(V545L, V582M) (PFKL−hook) (Homo sapiens; V545L/V582M) (protein)
chain: MAAVDLEKLRASGAGKAIGVLTSGGDAQGMNAAVRAVTRMGIYVGAKVFLIYEGYEGLVEGGENIKQANWLSVSNIIQLGGTIIGSARCKAFTTREGRRAAAYNLVQHGITNLCVIGGDGSLTGANIFRSEWGSLLEELVAEGKISETTARTYSHLNIAGLVGSIDNDFCGTDMTIGTDSALHRIMEVIDAITTTAQSHQRTFVLEVMGRHCGYLALVSALASGADWLFIPEAPPEDGWENFMCERLGETRSRGSRLNIIIIAEGAIDRNGKPISSSYVKDLVVQRLGFDTRVTVLGHVQRGGTPSAFDRILSSKMGMEAVMALLEATPDTPACVVTLSGNQSVRLPLMECVQMTKEVQKAMDDKRFDEATQLRGGSFENNWNIYKLLAHQKPPKEKSNFSLAILNVGAPAAGMNAAVRSAVRTGISHGHTVYVVHDGFEGLAKGQVQEVGWHDVAGWLGRGGSMLGTKRTLPKGQLESIVENIRIYGIHALLVVGGFEAYEGVLQLVEARGRYEELCIVMCVIPATISNNVPGTDFSLGSDTALNAAMESCDRIKQSASGTKRRVFIVETMGGYCGYLATMTGIAVGADAAYVFEDPFNIHDLKVNVEHMTEKMKTDIQRGLVLRNEKCHDYYTTEFLYNLYSSEGKGVFDCRTNVLGHLQQGGAPTPFDRNYGTKLGVKAMLWLSEKLREVYRKGRVFANAPDSACVIGLKKKAVAFSPVTELKKDTDFEHRMPREQWWLSLRLMLKMLAQYRISMAAYVSGELEHVTRRTLSMDKGF
notes: made in house; host or cells: Sf9 insect cells (baculovirus)
Km [3]: 1200 ± 90 µM

B3: PFKL(K315R) (PFKL−pocket) (Homo sapiens; K315R) (protein)
chain: MAAVDLEKLRASGAGKAIGVLTSGGDAQGMNAAVRAVTRMGIYVGAKVFLIYEGYEGLVEGGENIKQANWLSVSNIIQLGGTIIGSARCKAFTTREGRRAAAYNLVQHGITNLCVIGGDGSLTGANIFRSEWGSLLEELVAEGKISETTARTYSHLNIAGLVGSIDNDFCGTDMTIGTDSALHRIMEVIDAITTTAQSHQRTFVLEVMGRHCGYLALVSALASGADWLFIPEAPPEDGWENFMCERLGETRSRGSRLNIIIIAEGAIDRNGKPISSSYVKDLVVQRLGFDTRVTVLGHVQRGGTPSAFDRILSSRMGMEAVMALLEATPDTPACVVTLSGNQSVRLPLMECVQMTKEVQKAMDDKRFDEATQLRGGSFENNWNIYKLLAHQKPPKEKSNFSLAILNVGAPAAGMNAAVRSAVRTGISHGHTVYVVHDGFEGLAKGQVQEVGWHDVAGWLGRGGSMLGTKRTLPKGQLESIVENIRIYGIHALLVVGGFEAYEGVLQLVEARGRYEELCIVMCVIPATISNNVPGTDFSLGSDTAVNAAMESCDRIKQSASGTKRRVFIVETMGGYCGYLATVTGIAVGADAAYVFEDPFNIHDLKVNVEHMTEKMKTDIQRGLVLRNEKCHDYYTTEFLYNLYSSEGKGVFDCRTNVLGHLQQGGAPTPFDRNYGTKLGVKAMLWLSEKLREVYRKGRVFANAPDSACVIGLKKKAVAFSPVTELKKDTDFEHRMPREQWWLSLRLMLKMLAQYRISMAAYVSGELEHVTRRTLSMDKGF
notes: as for B2
Km [4]: 2060 ± 120 µM
